T1: Lsb3, P43603
T1 sequence (P43603 385-451, looked up): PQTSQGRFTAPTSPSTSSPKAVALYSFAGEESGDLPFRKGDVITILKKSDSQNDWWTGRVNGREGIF

T2: Sla1-3, P32790
T2 sequence (P32790 344-424, looked up): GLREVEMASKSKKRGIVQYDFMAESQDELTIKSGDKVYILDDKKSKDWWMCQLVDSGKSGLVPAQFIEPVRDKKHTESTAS

T3: Bud14, P27637
T3 sequence (P27637 247-328, looked up): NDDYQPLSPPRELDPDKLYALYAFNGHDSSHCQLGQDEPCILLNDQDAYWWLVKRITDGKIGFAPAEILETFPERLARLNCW

T4: Bzz1-2, P38822
T4 sequence (P38822 568-633, looked up): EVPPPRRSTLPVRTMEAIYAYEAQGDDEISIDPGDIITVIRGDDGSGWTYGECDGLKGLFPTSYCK

T5: Fus1, P11710
T5 sequence (P11710 432-512, looked up): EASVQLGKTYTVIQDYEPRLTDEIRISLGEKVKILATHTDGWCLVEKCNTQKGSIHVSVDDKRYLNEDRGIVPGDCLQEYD

T6: Lsb4, P32793
T6 sequence (P32793 402-468, looked up): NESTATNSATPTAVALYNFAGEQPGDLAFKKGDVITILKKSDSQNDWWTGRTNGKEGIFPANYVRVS

T7: Lsb1, P53281
T7 sequence (P53281 45-122, looked up): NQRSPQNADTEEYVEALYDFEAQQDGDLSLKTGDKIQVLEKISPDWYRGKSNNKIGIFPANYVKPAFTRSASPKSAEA

T8: Boi1, P38041
T8 sequence (P38041 1-86, looked up): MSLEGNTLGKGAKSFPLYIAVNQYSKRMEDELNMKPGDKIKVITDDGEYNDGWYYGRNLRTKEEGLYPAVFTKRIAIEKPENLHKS

T9: Cyk3, Q07533
T9 sequence (Q07533 1-83, looked up): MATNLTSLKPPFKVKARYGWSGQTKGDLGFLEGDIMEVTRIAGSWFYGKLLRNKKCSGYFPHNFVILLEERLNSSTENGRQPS

T10: Nbp2, Q12163
T10 sequence (Q12163 103-180, looked up): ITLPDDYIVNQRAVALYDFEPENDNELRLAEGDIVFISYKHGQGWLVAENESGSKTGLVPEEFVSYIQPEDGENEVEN

T11: Bzz1-1, P38822
T11 sequence (P38822 478-572, looked up): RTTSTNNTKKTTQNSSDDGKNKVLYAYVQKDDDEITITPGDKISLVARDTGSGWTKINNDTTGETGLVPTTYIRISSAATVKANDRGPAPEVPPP

T12: Cdc25, P04821
T12 sequence (P04821 50-136, looked up): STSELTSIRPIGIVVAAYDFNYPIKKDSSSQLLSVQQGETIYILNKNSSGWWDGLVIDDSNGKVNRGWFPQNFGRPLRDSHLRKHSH

T13: Bbc1, P47068
T13 sequence (P47068 1-78, looked up): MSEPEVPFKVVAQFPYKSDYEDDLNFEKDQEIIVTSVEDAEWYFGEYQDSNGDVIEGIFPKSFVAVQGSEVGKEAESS

T14: Hof1, Q05080
T14 sequence (Q05080 590-669, looked up): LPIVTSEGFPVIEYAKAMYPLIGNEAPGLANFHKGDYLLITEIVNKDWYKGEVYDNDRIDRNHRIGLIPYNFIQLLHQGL

T15: Pex13, P80667
T15 sequence (P80667 295-386, looked up): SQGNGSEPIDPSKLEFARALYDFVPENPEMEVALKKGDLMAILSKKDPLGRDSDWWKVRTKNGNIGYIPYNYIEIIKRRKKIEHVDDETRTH

T16: Pin3, Q06449
T16 sequence (Q06449 53-122, looked up): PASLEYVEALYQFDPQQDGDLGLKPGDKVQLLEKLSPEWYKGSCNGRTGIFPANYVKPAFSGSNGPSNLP

T17: Hse1, P38753
T17 sequence (P38753 208-285, looked up): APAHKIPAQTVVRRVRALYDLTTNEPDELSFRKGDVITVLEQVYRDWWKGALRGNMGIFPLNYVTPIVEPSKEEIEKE

T18: Boi2, P39969
T18 sequence (P39969 32-116, looked up): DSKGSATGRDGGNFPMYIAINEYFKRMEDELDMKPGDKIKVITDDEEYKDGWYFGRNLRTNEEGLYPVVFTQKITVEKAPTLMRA

T19: Myo5, Q04439
T19 sequence (Q04439 1072-1160, looked up): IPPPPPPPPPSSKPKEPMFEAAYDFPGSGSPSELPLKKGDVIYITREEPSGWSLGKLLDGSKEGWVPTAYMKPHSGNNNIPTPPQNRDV

T20: Abp1, P15891
T20 sequence (P15891 535-592, looked up): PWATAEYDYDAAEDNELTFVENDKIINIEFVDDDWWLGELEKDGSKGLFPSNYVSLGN

T21: Sla1-2, P32790
T21 sequence (P32790 60-140, looked up): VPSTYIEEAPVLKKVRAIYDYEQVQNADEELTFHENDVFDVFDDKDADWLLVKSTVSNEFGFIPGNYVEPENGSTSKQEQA


Key:
Experiment in all cases: SPOT array
Lsb3, P43603 = target: T1, Lsb3, P43603; conditions: median of control spots 406
Sho1, P40073 = conditions: median of control spots 1148
Sequence of Sho1, P40073 (P40073 287-367): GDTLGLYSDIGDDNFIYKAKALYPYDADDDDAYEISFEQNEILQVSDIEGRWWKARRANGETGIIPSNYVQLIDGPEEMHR

Sla1-3, P32790 = target: T2, Sla1-3, P32790; conditions: median of control spots 5475
Bem1-2, P29366 = conditions: median of control spots 4347
Sequence of Bem1-2, P29366 (P29366 139-227): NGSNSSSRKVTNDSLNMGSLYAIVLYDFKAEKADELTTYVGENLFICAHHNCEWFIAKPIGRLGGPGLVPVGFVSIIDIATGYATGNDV

Bud14, P27637 = target: T3, Bud14, P27637; conditions: median of control spots 956
Bzz1-2, P38822 = target: T4, Bzz1-2, P38822; conditions: median of control spots 4538
Fus1, P11710 = target: T5, Fus1, P11710; conditions: median of control spots 1200
Lsb4, P32793 = target: T6, Lsb4, P32793; conditions: median of control spots 397
Lsb1, P53281 = target: T7, Lsb1, P53281; conditions: median of control spots 388
Boi1, P38041 = target: T8, Boi1, P38041; conditions: median of control spots 1162
Cyk3, Q07533 = target: T9, Cyk3, Q07533; conditions: median of control spots 1451
Nbp2, Q12163 = target: T10, Nbp2, Q12163; conditions: median of control spots 357
Bzz1-1, P38822 = target: T11, Bzz1-1, P38822; conditions: median of control spots 4446
Cdc25, P04821 = target: T12, Cdc25, P04821; conditions: median of control spots 969
Bbc1, P47068 = target: T13, Bbc1, P47068; conditions: median of control spots 796
Hof1, Q05080 = target: T14, Hof1, Q05080; conditions: median of control spots 4086
Pex13, P80667 = target: T15, Pex13, P80667; conditions: median of control spots 1341
Myo3, P36006 = conditions: median of control spots 468
Pin3, Q06449 = target: T16, Pin3, Q06449; conditions: median of control spots 2171
Rvs167, P39743 = conditions: median of control spots 2707
Sequence of Rvs167, P39743 (P39743 419-482): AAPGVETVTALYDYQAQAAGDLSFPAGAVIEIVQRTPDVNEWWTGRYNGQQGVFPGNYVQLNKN

Hse1, P38753 = target: T17, Hse1, P38753; conditions: median of control spots 1727
Bem1-1, P29366 = conditions: median of control spots 4282
Sequence of Bem1-1, P29366 (P29366 55-141): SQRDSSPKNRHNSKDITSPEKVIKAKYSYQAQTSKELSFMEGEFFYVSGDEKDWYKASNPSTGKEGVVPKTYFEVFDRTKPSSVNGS

Boi2, P39969 = target: T18, Boi2, P39969; conditions: median of control spots 1161
GST = conditions: median of control spots 978
Myo5, Q04439 = target: T19, Myo5, Q04439; conditions: median of control spots 471
Abp1, P15891 = target: T20, Abp1, P15891; conditions: median of control spots 935
Sla1-2, P32790 = target: T21, Sla1-2, P32790; conditions: median of control spots 712

| Binder | SPOT intensity (Lsb3, P43603) | SPOT intensity (Sho1, P40073) | SPOT intensity (Sla1-3, P32790) | SPOT intensity (Bem1-2, P29366) | SPOT intensity (Bud14, P27637) | SPOT intensity (Bzz1-2, P38822) | SPOT intensity (Fus1, P11710) | SPOT intensity (Lsb4, P32793) | SPOT intensity (Lsb1, P53281) | SPOT intensity (Boi1, P38041) | SPOT intensity (Cyk3, Q07533) | SPOT intensity (Nbp2, Q12163) | SPOT intensity (Bzz1-1, P38822) | SPOT intensity (Cdc25, P04821) | SPOT intensity (Bbc1, P47068) | SPOT intensity (Hof1, Q05080) | SPOT intensity (Pex13, P80667) | SPOT intensity (Myo3, P36006) | SPOT intensity (Pin3, Q06449) | SPOT intensity (Rvs167, P39743) | other results |
| --- | --- | --- | --- | --- | --- | --- | --- | --- | --- | --- | --- | --- | --- | --- | --- | --- | --- | --- | --- | --- | --- |
| RKQRSIPLSPIVPES | 6 | 49 | 17 | 0 | 1 | 5 | 17 | 9 | 2 | 1 | 0 | 0 | 0 | 1 | 1 | 0 | 2 | 4 | 7 | 0 | SPOT intensity (Hse1, P38753): 0; SPOT intensity (Bem1-1, P29366): 0; SPOT intensity (Boi2, P39969): 1; SPOT intensity (GST): 1; SPOT intensity (Myo5, Q04439): 2; SPOT intensity (Abp1, P15891): 48; SPOT intensity (Sla1-2, P32790): 0 |
| TKRKRPARLIFYDSK | 6 | 91 | 33 | 6 | 29 | 5 | 29 | 7 | 4 | 39 | 7 | 183 | 0 | 61 | 308 | 4 | 1 | 7 | 0 | 0 | SPOT intensity (Hse1, P38753): 11; SPOT intensity (Bem1-1, P29366): 0; SPOT intensity (Boi2, P39969): 9; SPOT intensity (GST): 1; SPOT intensity (Myo5, Q04439): 3; SPOT intensity (Abp1, P15891): 157; SPOT intensity (Sla1-2, P32790): 2 |
| KLSRGRYGLPLSSRP | 4 | 31 | 31 | 0 | 4 | 7 | 3 | 0 | 175 | 4 | 0 | 2 | 0 | 12 | 9 | 8 | 3 | 1 | 7 | 3 | SPOT intensity (Hse1, P38753): 10; SPOT intensity (Bem1-1, P29366): 1; SPOT intensity (Boi2, P39969): 1; SPOT intensity (GST): 0; SPOT intensity (Myo5, Q04439): 0; SPOT intensity (Abp1, P15891): 26; SPOT intensity (Sla1-2, P32790): 1 |
| WRPRIVPILPYITRL | 0 | 3 | 9 | 94 | 2 | 0 | 8 | 6 | 22 | 0 | 0 | 1 | 0 | 14 | 87 | 770 | 10 | 0 | 8 | 36 | SPOT intensity (Hse1, P38753): 11; SPOT intensity (Bem1-1, P29366): 0; SPOT intensity (Boi2, P39969): 0; SPOT intensity (GST): 0; SPOT intensity (Myo5, Q04439): 0; SPOT intensity (Abp1, P15891): 10; SPOT intensity (Sla1-2, P32790): 0 |
| GKLKHIPRRPYEIER | 0 | 9 | 16 | 0 | 0 | 2 | 0 | 0 | 5 | 0 | 0 | 0 | 0 | 0 | 13 | 1 | 2 | 0 | 4 | 1 | SPOT intensity (Hse1, P38753): 1; SPOT intensity (Bem1-1, P29366): 0; SPOT intensity (Boi2, P39969): 0; SPOT intensity (GST): 1; SPOT intensity (Myo5, Q04439): 0; SPOT intensity (Abp1, P15891): 4; SPOT intensity (Sla1-2, P32790): 0 |
| KRRTSLFPWLHKPGI | 0 | 61 | 20 | 0 | 3 | 3 | 31 | 0 | 0 | 3 | 0 | 57 | 0 | 18 | 39 | 5 | 4 | 0 | 0 | 0 | SPOT intensity (Hse1, P38753): 19; SPOT intensity (Bem1-1, P29366): 0; SPOT intensity (Boi2, P39969): 0; SPOT intensity (GST): 0; SPOT intensity (Myo5, Q04439): 0; SPOT intensity (Abp1, P15891): 25; SPOT intensity (Sla1-2, P32790): 0 |

From article PMC2756588
